According to publication PMC9177699, “Dynamic interplay between the periplasmic chaperone SurA and the BAM complex in outer membrane protein folding” (Communications Biology, 2022):
Values belong to the binder of their own block, whether it stands above or below them.

Columns and labels:
[1] = target: T1, BamB (as a subunit of the purified BAM complex) (E. coli, UniProt P77774 20-392); assay: HDX-MS; differential HDX; 8 µM BAM with 10 µM SurA-WT or SurA-core, or 8 µM SurA-WT with 10 µM BAM; 0.02% DDM, 10 mM potassium phosphate, pH 8.0; labelling at 4 °C for 0.5, 2, 30, 120 min; details: both partners purified
T1 construct: BamB, E. coli, accessory lipoprotein of BAM, expressed from pJH114; Stood in the assays within the whole BAM complex, not alone

[2] = target: β-barrel assembly machinery (BAM) complex, BamABCDE (E. coli, UniProt P0A940 21-810; P77774 20-392; P0A903 25-344; P0AC02 20-245; P0A937 20-113); assay: cell-based or functional assay
[3] = target: T2, SurA-∆P2 (E. coli, UniProt P0ABZ6 21-428, removing residues 281–389); assay: MST; 100 nM Alexa Fluor 488-labelled tOmpA, SurA or SurA domain deletion variant titrated 100 µM-3 nM, 0.8 M urea, 20 mM Tris-HCl, pH 8.0, 25 °C; Hill binding model; apparent Kd; details: both partners purified
T2 construct: gene numbering including the signal peptide; source: E. coli BL21(DE3), purified (HisTrap with on-column 6 M Gdn-HCl wash, TEV cleavage, second HisTrap); not shown: His6, N-terminal, cleaved
T2 sequence: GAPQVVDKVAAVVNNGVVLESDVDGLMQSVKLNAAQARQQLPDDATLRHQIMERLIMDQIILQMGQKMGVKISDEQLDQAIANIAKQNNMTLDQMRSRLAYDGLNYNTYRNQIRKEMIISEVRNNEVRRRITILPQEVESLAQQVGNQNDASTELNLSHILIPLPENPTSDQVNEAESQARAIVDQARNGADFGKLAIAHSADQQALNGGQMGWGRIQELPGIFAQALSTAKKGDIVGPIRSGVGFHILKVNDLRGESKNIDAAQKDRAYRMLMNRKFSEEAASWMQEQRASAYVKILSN

[4] = target: T3, SurA-∆P1 (E. coli, UniProt P0ABZ6 21-428, removing residues 172–280); assay: as above; details: both partners purified
T3 construct: gene numbering including the signal peptide; source: E. coli BL21(DE3), purified (HisTrap with on-column 6 M Gdn-HCl wash, TEV cleavage, second HisTrap); not shown: His6, N-terminal, cleaved
T3 sequence: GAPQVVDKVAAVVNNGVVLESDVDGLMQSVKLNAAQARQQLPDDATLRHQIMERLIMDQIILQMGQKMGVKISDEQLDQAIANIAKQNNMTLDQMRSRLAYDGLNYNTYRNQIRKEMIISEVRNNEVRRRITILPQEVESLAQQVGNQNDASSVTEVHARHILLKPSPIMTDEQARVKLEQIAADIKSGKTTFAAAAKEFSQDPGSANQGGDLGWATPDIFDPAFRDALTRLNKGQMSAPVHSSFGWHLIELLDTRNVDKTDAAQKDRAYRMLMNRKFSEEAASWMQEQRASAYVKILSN

[5] = target: T4, SurA-WT (E. coli, UniProt P0ABZ6 21-428); assay: as above; details: both partners purified
T4 construct: gene numbering including the signal peptide; also called wild-type SurA; source: E. coli BL21(DE3), purified (HisTrap with on-column 6 M Gdn-HCl wash, TEV cleavage, second HisTrap); not shown: His6, N-terminal, cleaved
T4 sequence: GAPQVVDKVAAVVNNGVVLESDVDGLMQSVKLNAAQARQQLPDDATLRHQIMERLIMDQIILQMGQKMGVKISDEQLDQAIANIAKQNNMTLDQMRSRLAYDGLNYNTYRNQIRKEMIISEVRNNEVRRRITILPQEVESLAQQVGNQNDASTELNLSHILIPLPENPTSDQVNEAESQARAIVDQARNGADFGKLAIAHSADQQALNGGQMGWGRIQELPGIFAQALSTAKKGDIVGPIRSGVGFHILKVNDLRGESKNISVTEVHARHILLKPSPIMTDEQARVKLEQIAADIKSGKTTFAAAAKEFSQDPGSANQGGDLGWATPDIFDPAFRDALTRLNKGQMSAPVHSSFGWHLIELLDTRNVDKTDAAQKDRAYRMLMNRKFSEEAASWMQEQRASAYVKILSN

[6] = target: T5, SurA-core (E. coli, UniProt P0ABZ6 21-428, removing residues 172–389); assay: as above; details: both partners purified
T5 construct: gene numbering including the signal peptide; source: E. coli BL21(DE3), purified (HisTrap with on-column 6 M Gdn-HCl wash, TEV cleavage, second HisTrap); not shown: His6, N-terminal, cleaved
T5 sequence: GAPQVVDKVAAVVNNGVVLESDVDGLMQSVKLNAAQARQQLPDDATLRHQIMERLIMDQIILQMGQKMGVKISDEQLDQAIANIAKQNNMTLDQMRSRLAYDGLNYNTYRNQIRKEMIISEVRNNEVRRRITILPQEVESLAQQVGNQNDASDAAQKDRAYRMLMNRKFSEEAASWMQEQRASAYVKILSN

binding result [1]: binds | rate of BAM-catalysed folding of tOmpA into proteoliposomes (cold SDS–PAGE), with SurA-core against SurA-WT [2]: ~3 fold
B1: SurA-core (SurA 21-428 without residues 172-389, His-tag cleaved) (domain or fragment, E. coli, UniProt P0ABZ6 21-428, looked up)
chain: APQVVDKVAAVVNNGVVLESDVDGLMQSVKLNAAQARQQLPDDATLRHQIMERLIMDQIILQMGQKMGVKISDEQLDQAIANIAKQNNMTLDQMRSRLAYDGLNYNTYRNQIRKEMIISEVRNNEVRRRITILPQEVESLAQQVGNQNDASDAAQKDRAYRMLMNRKFSEEAASWMQEQRASAYVKILSN
notes: numbers are the gene numbering (including the signal peptide); A G of the TEV site probably stays after cleavage (surmised); source: E. coli BL21(DE3), purified (HisTrap, on-column denaturation with 6 M Gdn-HCl, TEV cleavage, second HisTrap); not shown: His6, N-terminal, cleaved

Kd [3]: 8.8 µM | Kd [4]: 14.5 µM | Kd [5]: 3.7 µM | Kd [6]: 10.2 µM
B2: Alexa Fluor 488-labelled tOmpA (domain or fragment)
chain: MCAPKDNTWYTGAKLGWSQYHDTGFINNNGPTHENQLGAGAFGGYQVNPYVGFEMGYDWLGRMPYKGSVENGAYKAQGVQLTAKLGYPITDDLDIYTRLGGMVWRADTKSNVYGKNHDTGVSPVFAGGVEYAITPEIATRLEYQWTNNIGDAHTIGTRPDNGMLSLGVSYRFG
modifications: Alexa Fluor 488 (C5 maleimide) on the added cysteine
notes: N-terminal Met and the Cys residue added immediately following it; unfolded: kept in 8 M urea and diluted to 0.8 M urea for the assay; also called Cys-tOmpA
